Measured values: the RNAGym collection of RNA variant scans (doi:10.7554/elife.90254)

B1: OR4K15 (parent)
chain: GUUAACGGUCAUAGGCCAUGGAAACUAGGAGCACCAUUUCGCUGCCAGUGAAGAAAUGAACAAAGAAAAUCUGGGCCAGGCAGGCAUCAAAAGAAAUAGUCUUGCGCUCAACCAGAAAGUCUGUAAUCAUUUUAAGGGUA

Variants of: B1
Experiment: self-cleavage, relative activity (ratio to wild type); higher = more cleavage; in vitro, sequencing; the parent is a self-cleaving ribozyme

Row | Variant | self-cleavage
1 | A23G G115A | 0.05
2 | G21A A116G | 0.46
3 | A23G A110G | 0.11
4 | A23G A110U | 1.25
5 | A23G U124A | 0.25
6 | A23G U124C | 0.69
7 | A23G C101U | 0.35
8 | A23G A126G | 0.76
9 | A23G A86G | 0.99
10 | A23G A86U | 1.25
11 | A22G A98G | 0.88
12 | A22G A86G | 1.31
13 | A23C A27G | 0.28
14 | A23G U39C | 1.54
15 | A22G C109U | 0
16 | A22G A36U | 0.87
17 | A23G U49C | 0.9
18 | A23G U127C | 0.79
19 | A23G U127G | 1
20 | A24C A47G | 1.46
21 | A22U G138U | 2.01
22 | G21A A135C | 1.25
23 | A23G A118U | 0.78
24 | A23G A118G | 0.75

Row | Variant | self-cleavage
25 | A22C A94U | 2.06
26 | A23G A92G | 1.17
27 | A22G U102G | 1.05
28 | A22G U102C | 1.56
29 | A22G U102A | 0.32
30 | A23G A94G | 1.42
31 | A23G A94C | 1.14
32 | A22G U131A | 1.53
33 | A22G U127C | 0.43
34 | A22G U127A | 2.2
35 | A22G U127G | 1.34
36 | A22G A54G | 0.84
37 | A22G A54C | 1.7
38 | A23U U97G | 1.35
39 | A22U A54G | 1.46
40 | A23G A116G | 0.47
41 | A22U A94G | 1.84
42 | A22U A51G | 1.63
43 | A23U U130C | 0.7
44 | A23U U39C | 1.27
45 | G21A A125G | 0.73
46 | A23U G137A | 1.46
47 | A23G G50U | 0.79
48 | A23G G50A | 1.9

Row | Variant | self-cleavage
49 | A24C A30U | 0.99
50 | G21U A90G | 1.16
51 | A23G U97C | 0.8
52 | A23G U97A | 1.48
53 | A22U U100C | 2.44
54 | A22G A63U | 1.15
55 | A22G G58A | 0.55
56 | A23G A36G | 1.43
57 | A23G A36C | 1.41
58 | A22G A52U | 1.02
59 | G21A A30G | 1.51
60 | G21A A95G | 2.07
61 | A23U U87A | 1.36
62 | A23U U87C | 1.08
63 | A23C A30G | 0.62
64 | A23G U122C | 0.84
65 | A23G A54G | 0.6
66 | A23G A114G | 0.54
67 | A23G A114U | 0.07
68 | A22G A51G | 1.22
69 | G21A U38A | 1.28
70 | G21A C85G | 0.64
71 | A23U U108C | 0.01
72 | A23U A67G | 1.73

Row | Variant | self-cleavage
73 | A22G U39C | 1.67
74 | A22G U39A | 1.39
75 | A23G G119A | 1.38
76 | A23C A62G | 0.57
77 | A23G A82G | 0.57
78 | A23G U108A | 0.02
79 | A22U A67G | 1.87
80 | A22U U87A | 1.53
81 | A22U U87C | 0.88
82 | G21A A98U | 2.32
83 | A23U G115U | 0.21
84 | A23C C76A | 0.13
85 | A22U A78U | 0.33
86 | G21U G65A | 1.96
87 | G21U U108C | 0.02
88 | A24C A51U | 1.33
89 | A22U A90G | 0.91
90 | A22G A126G | 0.85
91 | A22G A126U | 0.92
92 | A23G A98U | 0.92
93 | A22G U132G | 1.75
94 | A22U U97C | 0.69
95 | A23U A52G | 1.2
96 | A22G A134U | 1.05

Row | Variant | self-cleavage
97 | A23G G53A | 1.7
98 | A22U A96U | 1.54
99 | A22U A96G | 1.57
100 | A22G U37G | 0.8
101 | A22G U37A | 2.01
102 | G21A A140G | 1.48
103 | A22U A91G | 0.68
104 | A22U A36G | 1.48
105 | A22U A36U | 1.53
106 | A23U A33U | 1.17
107 | A22C A89C | 1.57
108 | A22G A118U | 1.05
109 | A23G G136A | 1.39
110 | A23U U131C | 1.02
111 | A22G A90G | 1.12
112 | A22G A82U | 0.36
113 | A23G U120C | 0.96
114 | A23G U120A | 0.47
115 | A23G U120G | 1.48
116 | G21A A33U | 2.16
117 | A23U A86U | 1.32
118 | A23U A86G | 0.48
119 | A23U G136A | 0.85
120 | A22U A24G | 1.01

Row | Variant | self-cleavage
121 | A23U U100C | 2.74
122 | G21U A62G | 1.54
123 | A23C G83A | 2.28
124 | A23U G93A | 1.85
125 | A23U A135G | 1.35
126 | A23G G74A | 0.14
127 | A22G A125G | 0.57
128 | A22G G44A | 1.2
129 | G21A G138A | 0.84
130 | A22G U49G | 1.39
131 | A22G U49C | 0.55
132 | G21U U37A | 1.06
133 | A23U U102A | 1.09
134 | A22G C46U | 1.36
135 | A23U A111G | 0.04
136 | A23C A96G | 1.33
137 | A23U A96G | 1.59
138 | A22G A69C | 0.68
139 | G21A G106A | 0.02
140 | A23U A27G | 1.16
141 | A23G U37C | 1.03
142 | A23U G41C | 2.09
143 | A22C A63U | 1.85
144 | A23U A118G | 0.66

Row | Variant | self-cleavage
145 | A22G U103A | 0.41
146 | A22G U103G | 0.05
147 | G21A A68G | 1.55
148 | A22U U39C | 0.34
149 | A23G A95U | 2.26
150 | A22G U70C | 0.91
151 | G21A U122G | 2.56
152 | A22U A23G | 1.74
153 | A22G G53C | 1.81
154 | A23U U49C | 1.55
155 | A23U U49A | 1.2
156 | A22G A67C | 1.6
157 | A23U A140C | 1.37
158 | A23U A140G | 1.38
159 | A22G A111U | 0.04
160 | A22G A111G | 0.05
161 | A23G A135G | 1.13
162 | A23G A135U | 1.78
163 | A22G A33G | 0.98
164 | A22G A33U | 1.4
165 | A23G A96U | 1.17
166 | A23G A24G | 1.03
167 | A23G A89G | 1.32
